Measurements from US20240117018A1.

Experiments:
Assay in all cases: cell-based or functional assay
[1] = molecular target: Env of HIV-1 pseudovirus PVO.4 (HIV-1)
[2] = molecular target: Env of HIV-1 pseudovirus BF1266.431a (HIV-1)
[3] = molecular target: Env of HIV-1 pseudovirus Du422.1 (HIV-1)
[4] = molecular target: Env of HIV-1 pseudovirus TRO.11 (HIV-1)
[5] = molecular target: Env of HIV-1 pseudovirus 1056_10_TA11_1826 (HIV-1)
[6] = molecular target: Env of HIV-1 pseudovirus CNE52 (HIV-1)
[7] = molecular target: Env of HIV-1 pseudovirus WITO4160.33 (HIV-1)
[8] = molecular target: Env of HIV-1 pseudovirus Ce0682_E4 (HIV-1)
[9] = molecular target: Env of HIV-1 pseudovirus 928-28 (HIV-1)
[10] = molecular target: Env of HIV-1 pseudovirus REJO4541.67 (HIV-1)
[11] = molecular target: Env of HIV-1 pseudovirus 6244_13_B5_4576 (HIV-1)
[12] = molecular target: Env of HIV-1 pseudovirus Ce703010054_2A2 (HIV-1)
[13] = molecular target: Env of HIV-1 pseudovirus Ce1086_B2 (HIV-1)
[14] = molecular target: Env of HIV-1 pseudovirus ZM233M.PB6 (HIV-1)
[15] = molecular target: Env of HIV-1 pseudovirus 191084 B7-19 (HIV-1)
[16] = molecular target: Env of HIV-1 pseudovirus CNE53 (HIV-1)
[17] = molecular target: Env of HIV-1 pseudovirus MS208.A1 (HIV-1)
[18] = molecular target: HIV-1 Env pseudovirus 6244_13_B5_4576 (HIV-1)
[19] = molecular target: HIV-1 Env pseudovirus 7030102001E5(Rev-) (HIV-1)
[20] = molecular target: HIV-1 Env pseudovirus HIV-16845-2.22 (HIV-1)
[21] = molecular target: HIV-1 Env pseudovirus SC05_8C11_2344 (HIV-1)
[22] = molecular target: HIV-1 Env pseudovirus Ce0682_E4 (HIV-1)
[23] = molecular target: HIV-1 Env pseudovirus Ce1172_H1 (HIV-1)
[24] = molecular target: HIV-1 Env pseudovirus THRO4156.18 (HIV-1)
[25] = molecular target: HIV-1 Env pseudovirus ZM247v1(Rev-) (HIV-1)
[26] = molecular target: HIV-1 Env pseudovirus Ce2010_F5 (HIV-1)
[27] = molecular target: HIV-1 Env pseudovirus ZM233M.PB6 (HIV-1)
[28] = molecular target: HIV-1 Env pseudovirus SC422661.8 (HIV-1)

For PG9 (antibody), the IC50 [1] was 10.6 µg/mL, the IC80 [1] was > 50 µg/mL and the IC50 [2] was 0.026 µg/mL. For the same substance, the IC80 [2] was 0.088 µg/mL, the IC50 [3] was 0.614 µg/mL and the IC80 [3] was 10.4 µg/mL. The IC50 [4] was 43.2 µg/mL, the IC80 [4] was > 50 µg/mL and the IC50 [5] was 6.34 µg/mL. For the same substance, the IC80 [5] was 38.3 µg/mL, the IC50 [6] was 0.029 µg/mL and the IC80 [6] was 0.081 µg/mL. It also gave an IC50 [7] of 0.01 µg/mL, an IC80 [7] of 0.037 µg/mL and an IC50 [8] of 0.196 µg/mL. It also gave an IC80 [8] of 0.698 µg/mL, an IC50 [9] of 0.101 µg/mL and an IC80 [9] of 0.45 µg/mL. The IC50 [10] was 0.012 µg/mL, the IC80 [10] was 0.163 µg/mL and the IC50 [11] was > 50 µg/mL. For the same substance, the IC80 [11] was > 50 µg/mL, the IC50 [12] was 0.022 µg/mL and the IC80 [12] was 0.103 µg/mL. For the same substance, the IC50 [13] was > 50 µg/mL, the IC80 [13] was > 50 µg/mL and the IC50 [14] was 0.01 µg/mL. For the same substance, the IC80 [14] was 0.026 µg/mL, the IC50 [15] was 0.043 µg/mL and the IC80 [15] was 0.202 µg/mL. It also gave an IC50 [16] of 0.131 µg/mL, an IC80 [16] of 0.6 µg/mL and an IC50 [17] of 0.005 µg/mL. The IC80 [17] was 0.014 µg/mL.
In the case of N49P18.1 (antibody), the IC50 [18] is reported as 33.4 µg/mL, the IC80 [18] is reported as > 50 µg/mL and the MPI [18] is reported as 61. It also gave an IC50 [19] of 6.35 µg/mL, an IC80 [19] of 17.7 µg/mL and an MPI [19] of 98. For the same substance, the IC50 [20] was > 50 µg/mL, the IC80 [20] was > 50 µg/mL and the MPI [20] was 23. For the same substance, the IC50 [21] was 17.3 µg/mL, the IC80 [21] was > 50 µg/mL and the MPI [21] was 79. The IC50 [22] was 3.95 µg/mL, the IC80 [22] was 21.1 µg/mL and the MPI [22] was 96. For the same substance, the IC50 [23] was 46.4 µg/mL, the IC80 [23] was > 50 µg/mL and the MPI [23] was 52. The IC50 [24] was > 50 µg/mL, the IC80 [24] was > 50 µg/mL and the MPI [24] was 19. For the same substance, the IC50 [25] was 10.9 µg/mL, the IC80 [25] was > 50 µg/mL and the MPI [25] was 79. For the same substance, the IC50 [26] was 29 µg/mL, the IC80 [26] was > 50 µg/mL and the MPI [26] was 68. The IC50 [27] was 38.4 µg/mL, the IC80 [27] was > 50 µg/mL and the MPI [27] was 57. The IC50 [28] was 14.1 µg/mL, the IC80 [28] was 43.4 µg/mL and the MPI [28] was 84.
For 10E8 (antibody), the IC50 [1] was 0.747 µg/mL, the IC80 [1] was > 10 µg/mL and the IC50 [2] was 2.69 µg/mL. The IC80 [2] was > 10 µg/mL, the IC50 [3] was 0.351 µg/mL and the IC80 [3] was 1.88 µg/mL. For the same substance, the IC50 [4] was 0.034 µg/mL, the IC80 [4] was 0.25 µg/mL and the IC50 [5] was 0.134 µg/mL. It also gave an IC80 [5] of 1.03 µg/mL, an IC50 [6] of 0.304 µg/mL and an IC80 [6] of 3.06 µg/mL. It also gave an IC50 [7] of 0.094 µg/mL, an IC80 [7] of 1.23 µg/mL and an IC50 [8] of 1.22 µg/mL. It also gave an IC80 [8] of 7.71 µg/mL, an IC50 [9] of 0.384 µg/mL and an IC80 [9] of 1.96 µg/mL. The IC50 [10] was 0.203 µg/mL, the IC80 [10] was 1.69 µg/mL and the IC50 [11] was 0.086 µg/mL. The IC80 [11] was 0.809 µg/mL, the IC50 [12] was 2.3 µg/mL and the IC80 [12] was 8.58 µg/mL. It also gave an IC50 [13] of 1.16 µg/mL, an IC80 [13] of 6.93 µg/mL and an IC50 [14] of 0.442 µg/mL. For the same substance, the IC80 [14] was 2.39 µg/mL, the IC50 [15] was 5.16 µg/mL and the IC80 [15] was > 10 µg/mL. It also gave an IC50 [16] of 0.326 µg/mL, an IC80 [16] of 1.92 µg/mL and an IC50 [17] of 0.609 µg/mL. The IC80 [17] was 3.72 µg/mL.
Substance N49P11 (antibody) has an IC50 [18] of 1.12 µg/mL, an IC80 [18] of 5.45 µg/mL and an MPI [18] of 100. For the same substance, the IC50 [19] was 0.635 µg/mL, the IC80 [19] was 2.29 µg/mL and the MPI [19] was 100. For the same substance, the IC50 [20] was 1.72 µg/mL, the IC80 [20] was 8.15 µg/mL and the MPI [20] was 100. For the same substance, the IC50 [21] was 5.42 µg/mL, the IC80 [21] was 20.5 µg/mL and the MPI [21] was 100. The IC50 [22] was 0.091 µg/mL, the IC80 [22] was 0.387 µg/mL and the MPI [22] was 100. The IC50 [23] was 3.55 µg/mL, the IC80 [23] was 19.2 µg/mL and the MPI [23] was 100. The IC50 [24] was 1.84 µg/mL, the IC80 [24] was 10.4 µg/mL and the MPI [24] was 100. It also gave an IC50 [25] of 7.48 µg/mL, an IC80 [25] of 21.5 µg/mL and an MPI [25] of 100. The IC50 [26] was 0.38 µg/mL, the IC80 [26] was 3.27 µg/mL and the MPI [26] was 100. It also gave an IC50 [27] of 5.92 µg/mL, an IC80 [27] of 18.5 µg/mL and an MPI [27] of 100. The IC50 [28] was 0.729 µg/mL, the IC80 [28] was 3.49 µg/mL and the MPI [28] was 100.
